Experimental findings from paper PMC6220267 (2018) are described below.

Common to all, as to assay: BLI
Background: In BLI a coated tip is dipped into the sample, and binding shifts an interference pattern.

The target in assay [1] is T1, Aβ42 oligomers (soluble) (UniProt P05067 672-713).
For assay [2], the target named is T1, Aβ42 oligomers (soluble). This is another data set of the same source.
Assay [3] has as its target Aβ40 monomers (UniProt P05067 672-711).
Assay [4] concerns the target Aβ42 monomers (UniProt P05067 672-713).

As usually defined, the koff is the rate constant with which the complex falls apart. Higher therefore signals fast dissociation. As usually defined, the Kd is the free concentration of one partner at which half of the binding sites on the other are occupied at equilibrium, for simple one-to-one binding.

B1: soluble mouse Trem2‐Fc (soluble ectodomain) (Fc fusion)
chain: LNTTVLQGMAGQSLRVSCTYDALKHWGRRKAWCRQLGEEGPCQRVVSTHGVWLLAFLKKRNGSTVIADDTLAGTVTITLKNLQAGDAGLYQCQSLRGREAEVLQKVLVEVLEDPLDDQDAGDLWVPEESSSFEGAQVEHSTSRNQETSFPPTS
The molecule B1 had a koff in assay [1] of 1e-07 s⁻¹. In assay [2], this molecule registered a dissociation constant Kd of 1 pM.

B2: soluble TREML1‐Fc (human, soluble ectodomain) (Fc fusion)
chain: QGIVGSLPEVLQAPVGSSILVQCHYRLQDVKAQKVWCRFLPEGCQPLVSSAVDRRAPAGRRTFLTDLGGGLLQVEMVTLQEEDAGEYGCMVDGARGPQILHRVSLNILPPEEEEETHKIGSLAENAFSDPAGSANPLEPSQDEKSIP
The molecule B2 yielded a dissociation rate constant (koff) in assay [1] of 1e-07 s⁻¹. In assay [2], this molecule registered an equilibrium dissociation constant (Kd) of 1 pM.

B3: soluble TREM2‐Fc (soluble ectodomain of human TREM2 fused to the Fc domain of human IgG4, V5 epitope) (Fc fusion)
chain: HNTTVFQGVAGQSLQVSCPYDSMKHWGRRKAWCRQLGEKGPCQRVVSTHNLWLLSFLRRWNGSTAITDDTLGGTLTITLRNLQPHDAGLYQCQSLHGSEADTLRKVLVEVLADPLDHRDAGDLWFPGESESFEDAHVEHSISRSLLEGEIPFPPTS
As to B3, the dissociation constant Kd in assay [3] turned out to be 140000 pM; in assay [4], 290000 pM.

B4: soluble mouse Treml1‐Fc (soluble ectodomain) (Fc fusion)
chain: DSHPEVLQAPVGSSILVQCHYRLQDVRALKVWCQFLQEGCHPLVTSAVDRRAPGNGRIFLTDLGGGLLQVEMVTLQEEDTGEYGCVVEGAAGPQTLHRVSLLVLPPVPGPREGEEAEDEKETYRIGTGSLLEDPSLDPSASAGPHEFRRRENSIP
B4: the koff in assay [1] stood at 1e-07 s⁻¹. The equilibrium dissociation constant (Kd) in assay [2] came to 1 pM.
